Our source for the protein stability index values is the supplement of paper PMC10724198.

± gives the standard deviation of the averaged measurements.
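Note: PSI is a weighted mean of sequencing reads over stability bins, variants kept only with over 10 reads, mCherry proximal and sfGFP distal, peptide attached via GGGS linker.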

The subject of this data set is Saccharomyces cerevisiae. In words: protein stability index of tFT-peptide fusion (C-terminal peptide) (PSI (0-1 scale)); higher = more stable (slower turnover). The settings on record: genetic background: wild type; temperature: 30 C.
As to PSSAQKNPNPNT, the protein stability index stood at 0.701 ± 0.073.
For the sequence PSSLFPPPPSVL, the protein stability index was determined as 0.685 ± 0.029.
Sequence PSSLPPLSAPSS yielded a protein stability index of 0.6829 ± 0.0035.
Next, PSSPPCPPPLPS: 0.624 ± 0.02; PSSPPPPPPPPH: 0.71 ± 0.0097.
To PSSPPSLPSPLP belongs 0.691 ± 0.065.
Turning to PSSPPSSTSPPL, the protein stability index was 0.633 ± 0.16.
To PSSPSPPYPFAP belongs 0.684 ± 0.016.
In turn, PSSRSASSSSPA showed a protein stability index of 0.705 ± 0.043.
To PSSSPPLLPPPA belongs 0.638 ± 0.026; to PSTLQPLQRSPR, 0.617 ± 0.0014.
With PSVLPSSCTPSP, the protein stability index came to 0.663 ± 0.03.
As to PSWLPLPLLFLV, the protein stability index amounted to 0.416 ± 0.18.
Consider PSYTSYFVGLST, for which the protein stability index was found to be 0.48 ± 0.11.
PTDVVCVSGHGS: the protein stability index worked out at 0.748 ± 0.076.
In the case of PTFPPPPRTPPS, the protein stability index turned out to be 0.719 ± 0.017.
PTFRSRPFPPHP displayed a protein stability index of 0.703 ± 0.032.
The sequence PTGCPPGVTPCL came in with a protein stability index of 0.681 ± 0.022.
To PTLGDPSVLLLL belongs 0.69 ± 0.022.
Turning to PTLSPSPLAPLS, the protein stability index stood at 0.6635 ± 0.0018.
Next, PTNQHNLEQRPE: 0.667 ± 0.05; PTPLSPRNTILR: 0.726 ± 0.1; PTPPLPLPRPLP: 0.688 ± 0.037.
Next, PTPPNSPRPPTP: 0.63 ± 0.12; PTPPPLLTRPLP: 0.709 ± 0.11.
As to PTSLPAPPRLPF, the protein stability index worked out at 0.713 ± 0.023.
Sequence PTSPPPPLPPPS had a protein stability index of 0.7066 ± 0.0036.
For the sequence PTVLCTGKCLRS, the protein stability index came out at 0.635 ± 0.044.
PVAGSAGVRNLP came in with a protein stability index of 0.671 ± 0.012.
As to PVAGTLDVHYRV, the protein stability index is 0.7098 ± 0.0063.
Next, PVAPKPTGAKTP: 0.661 ± 0.06.
As to PVCDPCSKATLL, the protein stability index came out at 0.687 ± 0.015.
To PVDAAPCSPSGL belongs 0.663 ± 0.041; to PVDPPEDLNTRS, 0.7098 ± 0.0064; to PVFSHTDSRYRP, 0.681 ± 0.09.
For PVGFPLPCPFFT, the protein stability index is 0.688 ± 0.035.
As for PVKTHPPPPPLP, the protein stability index was determined as 0.724 ± 0.024.
Next, PVLELTLILRRS: 0.6304 ± 0.0023.
Next, PVLLLLSLPRPL: 0.667 ± 0.014; PVLLVWDLPAVL: 0.714 ± 0.086; PVPADGPSPPQP: 0.721 ± 0.035.
Sequence PVPDDVTVLLSR had a protein stability index of 0.804 ± 0.12.
In turn, PVPLEAPSPPPP showed a protein stability index of 0.671 ± 0.022.
Regarding PVPLPSSSPSPY, the protein stability index came out at 0.663 ± 0.046.
To PVPLTPRCPSVT belongs 0.6 ± 0.019; to PVPLVLSFLCDL, 0.686 ± 0.03.
For PVPPAPASPPTG, the protein stability index amounted to 0.742 ± 0.06.
In the case of PVPPLPPRPPPL, the protein stability index came to 0.619 ± 0.11.
Regarding PVPPLRRFPPLF, the protein stability index is 0.648 ± 0.036.
For PVPPSARHSSPP, the protein stability index is 0.66 ± 0.021.
With PVPVFLLLFFSP, the protein stability index amounted to 0.496 ± 0.052.
Regarding PVSPLPGPPPPP, the protein stability index came out at 0.7681 ± 0.0053.
PVSPPLSLASPS registered a protein stability index of 0.706 ± 0.047.
PVSRSVHIEDKR yielded a protein stability index of 0.727 ± 0.052.
Consider PVVLGVGMEGIS, for which the protein stability index amounted to 0.7137 ± 0.0068.
Next, PVWVDRGVLWSV: 0.716 ± 0.094; PWFGSSPRLAAC: 0.7346 ± 0.0073; PWGGMNWGGLSV: 0.745 ± 0.073.
Next, PWKDPSLLLHRS: 0.743 ± 0.061; PWPFKQHEHRRA: 0.847 ± 0.015.
To PYIKDRYSPANN belongs 0.781 ± 0.062; to PYLLPPFLPSPP, 0.732 ± 0.029.
Sequence PYSPPYSLTSLS displayed a protein stability index of 0.708 ± 0.075.
PYVAFMLPSPWQ gave a protein stability index of 0.672 ± 0.033.
To QAHRHASPKTRT belongs 0.654 ± 0.032.
For QAVQTLTAETKH, the protein stability index was 0.63 ± 0.051.
QAVVGRVRLRGE returned a protein stability index of 0.6775 ± 0.0017.
QCFRYSVFVGRG displayed a protein stability index of 0.63 ± 0.019.
To QCIRLFCPLVSL belongs 0.587 ± 0.014; to QDTRRRAPYPPS, 0.673 ± 0.051; to QEPDARYGPGRT, 0.692 ± 0.12.
The sequence QESGPEAGIPPL registered a protein stability index of 0.7222 ± 0.003.
Turning to QFTSGCPAYLLK, the protein stability index came out at 0.678 ± 0.0079.
The sequence QGEARRPPSPGR gave a protein stability index of 0.638 ± 0.19.
On to QGGCAATRARGS, for which the protein stability index was found to be 0.631 ± 0.0033.
The sequence QGLSHVVTCLFG showed a protein stability index of 0.721 ± 0.07.
To QGRLRLSLLVSG belongs 0.526 ± 0.0048; to QGRYPLNVLIRI, 0.57 ± 0.057; to QGTHRGSGGVTE, 0.716 ± 0.023.
For QGVPNEPLWARP, the protein stability index was 0.72 ± 0.027.
As for QHTHNRLRAAQD, the protein stability index stood at 0.678 ± 0.029.
To QIKPSLGLDKPS belongs 0.683 ± 0.061; to QIQKINTKSKKN, 0.699 ± 0.021; to QIRRPRRFFYVS, 0.642 ± 0.17.
In the case of QIVDHCLVWLRG, the protein stability index was found to be 0.628 ± 0.0066.
The sequence QKISEKNISEKN had a protein stability index of 0.7063 ± 0.0013.
Take QKKKIRKKKKTT: the protein stability index is 0.685 ± 0.0074.
Next, QKKKKKIKEHSK: 0.626 ± 0.031; QKKRKKPGKWKS: 0.662 ± 0.022.
In the case of QKQQRIKQTAKK, the protein stability index was 0.703 ± 0.048.
Regarding QKRIALNSQKNT, the protein stability index is 0.688 ± 0.048.
As for QKRKKQNKDGGT, the protein stability index is 0.716 ± 0.042.
Next, QKSGELVKNVRI: 0.673 ± 0.035; QKVNKDTRTSEF: 0.709 ± 0.014.
QLNGTVTRPGDF gave a protein stability index of 0.7 ± 0.036.
Consider QLRPLSPLPPQP, for which the protein stability index is 0.738 ± 0.029.
Sequence QLSLSTPAGRLI gave a protein stability index of 0.6886 ± 0.0068.
With QLSRHCYQPSGG, the protein stability index was found to be 0.671 ± 0.0073.
For QMKRPSCKGTCD, the protein stability index came out at 0.679 ± 0.044.
To QNEVWDACVGRC belongs 0.702 ± 0.017; to QNGNRPCCEKAW, 0.681 ± 0.021; to QNIRTELTSPRV, 0.6596 ± 0.0016.
QNKNPNRTEKSK yielded a protein stability index of 0.701 ± 0.056.
QNRKELVERPKR showed a protein stability index of 0.702 ± 0.017.
Sequence QNTTESANWSIT gave a protein stability index of 0.696 ± 0.052.
QPALGNTNKYKN came in with a protein stability index of 0.676 ± 0.049.
As for QPLPLPSPPPPA, the protein stability index worked out at 0.741 ± 0.058.
Consider QPPSPSLFFPRV, for which the protein stability index came out at 0.704 ± 0.016.
For QPSDTSHPHQPS, the protein stability index amounted to 0.692 ± 0.028.
The sequence QPYRQAKNQRLP gave a protein stability index of 0.728 ± 0.02.
In the case of QQRHITHRKIRI, the protein stability index was found to be 0.6595 ± 0.0048.
Regarding QRARDSLVQTRH, the protein stability index is 0.681 ± 0.032.
The sequence QRGGTWGALWEG came in with a protein stability index of 0.671 ± 0.02.
QRMKHQKVTSNP had a protein stability index of 0.732 ± 0.06.
QRRARVSDISVY showed a protein stability index of 0.634 ± 0.012.
QSAPWPSPLSFS registered a protein stability index of 0.718 ± 0.019.
